From the Immune Epitope Database (IEDB)

How the values were obtained:
[1] = target: HLA-A*02:01; experiment: IEDB peptide-MHC binding, purified MHC/competitive/radioactivity; filed as Kd, often an IC50 or EC50 that approximates it; ≥ and ≤ were set here for values at or beyond the usual limits of such assays
[2] = target: HLA-A*02:02; experiment: as above
[3] = target: HLA-A*02:03; experiment: as above
[4] = target: HLA-A*02:06; experiment: as above
[5] = target: HLA-A*03:01; experiment: as above
[6] = target: HLA-A*11:01; experiment: as above
[7] = target: HLA-A*31:01; experiment: as above
[8] = target: HLA-A*33:01; experiment: as above
[9] = target: HLA-A*68:01; experiment: as above
[10] = target: HLA-A*68:02; experiment: as above
[11] = target: HLA-B*07:02; experiment: as above
[12] = target: HLA-B*35:01; experiment: as above
[13] = target: HLA-B*51:01; experiment: as above
[14] = target: HLA-B*53:01; experiment: as above
[15] = target: HLA-B*54:01; experiment: as above
[16] = target: HLA-A*01:01; experiment: as above; conditions: source organism: Hepatitis C virus (isolate H)
[17] = target: HLA-B*08:01; experiment: as above; conditions: source organism: Hepatitis C virus (isolate H)
[18] = target: HLA-B*18:01; experiment: as above; conditions: source organism: Hepatitis C virus (isolate H)
[19] = target: HLA-B*40:01; experiment: as above; conditions: source organism: Hepatitis C virus (isolate H)
[20] = target: HLA-B*40:02; experiment: as above; conditions: source organism: Hepatitis C virus (isolate H)
[21] = target: HLA-B*44:02; experiment: as above; conditions: source organism: Hepatitis C virus (isolate H)
[22] = target: HLA-B*44:03; experiment: as above; conditions: source organism: Hepatitis C virus (isolate H)
[23] = target: HLA-B*08:01; experiment: IEDB peptide-MHC binding, purified MHC/competitive/fluorescence; filed as Kd, often an IC50 or EC50 that approximates it; ≥ and ≤ were set here for values at or beyond the usual limits of such assays; conditions: source organism: Escherichia coli 536
[24] = target: HLA-B*39:01; experiment: as above; conditions: source organism: Escherichia coli 536
[25] = target: HLA-A*02:01; experiment: IEDB peptide-MHC binding, purified MHC/direct/fluorescence; filed as Kd, often an IC50 or EC50 that approximates it; ≥ and ≤ were set here for values at or beyond the usual limits of such assays; conditions: source organism: SARS-CoV1
[26] = target: HLA-A*11:01; experiment: as above; conditions: source organism: SARS-CoV1
[27] = target: HLA-B*07:02; experiment: as above; conditions: source organism: SARS-CoV1
[28] = source organism: Vaccinia virus WR
[29] = source organism: Hepatitis C virus (isolate H)
[30] = source organism: SARS coronavirus Tor2
[31] = source organism: Triticum aestivum

Question: What does the source list for TFMIITSTK?
Answer: Kd [1, 28]: ≥ 78.1 µM; Kd [2, 28]: ≥ 63.7 µM; Kd [3, 28]: ≥ 30.8 µM; Kd [4, 28]: ≥ 77.1 µM; Kd [5, 28]: 0.404 µM; Kd [6, 28]: 0.189 µM; Kd [7, 28]: 0.367 µM; Kd [8, 28]: 0.619 µM; Kd [9, 28]: 0.104 µM; Kd [10, 28]: ≥ 76.9 µM; Kd [11, 28]: ≥ 77.5 µM; Kd [12, 28]: 19.7 µM; Kd [13, 28]: ≥ 77.5 µM; Kd [14, 28]: ≥ 78.2 µM; Kd [15, 28]: ≥ 42.6 µM

Question: HPALVFDITK was tested. Which Kd [16] did it give?
Answer: 6.4 µM

Question: What about the Kd [1, 29] of the same sequence?
Answer: ≥ 69.4 µM

Question: What about the Kd [2, 29] of the same sequence?
Answer: ≥ 47.2 µM

Question: What about the Kd [3, 29] of the same sequence?
Answer: 7.41 µM

Question: What about the Kd [4, 29] of the same sequence?
Answer: ≥ 69.8 µM

Question: And the Kd [5, 29]?
Answer: 4.2 µM

Question: What about the Kd [6, 29] of the same sequence?
Answer: 0.862 µM

Question: And the Kd [7, 29]?
Answer: ≥ 70 µM

Question: And the Kd [8, 29]?
Answer: ≥ 38.4 µM

Question: And the Kd [9, 29]?
Answer: 0.00232 µM

Question: And the Kd [10, 29]?
Answer: ≥ 69.8 µM

Question: What about the Kd [11, 29] of the same sequence?
Answer: 3.04 µM

Question: What about the Kd [17] of the same sequence?
Answer: ≥ 52.1 µM

Question: And the Kd [18]?
Answer: ≥ 28.2 µM

Question: What about the Kd [12, 29] of the same sequence?
Answer: 0.433 µM

Question: What about the Kd [19] of the same sequence?
Answer: ≥ 69.6 µM

Question: And the Kd [20]?
Answer: ≥ 70.8 µM

Question: What about the Kd [21] of the same sequence?
Answer: ≥ 70.2 µM

Question: What about the Kd [22] of the same sequence?
Answer: ≥ 63.3 µM

Question: And the Kd [13, 29]?
Answer: ≥ 69.6 µM

Question: And the Kd [14, 29]?
Answer: 0.478 µM

Question: And the Kd [15, 29]?
Answer: 0.13 µM

Question: LPRVVGGKTV was tested. Which Kd [11, 28] did it give?
Answer: 0.000306 µM

Question: And the Kd [12, 28]?
Answer: ≥ 28.8 µM

Question: And the Kd [13, 28]?
Answer: 0.0326 µM

Question: And the Kd [14, 28]?
Answer: 12.4 µM

Question: What about the Kd [15, 28] of the same sequence?
Answer: 0.0391 µM

Question: What does the source list for FGGVPREVL?
Answer: Kd [23]: ≥ 20 µM; Kd [24]: ≥ 20 µM

Question: For TPRDLGACI, which Kd [25] is on record?
Answer: ≥ 36 µM

Question: And the Kd [26]?
Answer: 9.73 µM

Question: What about the Kd [27] of the same sequence?
Answer: 0.188 µM

Question: What about the Kd [12, 30] of the same sequence?
Answer: 12.9 µM

Question: And the Kd [13, 30]?
Answer: 3.89 µM

Question: What about the Kd [14, 30] of the same sequence?
Answer: ≥ 42 µM

Question: What about the Kd [15, 30] of the same sequence?
Answer: 3.88 µM

Question: QPQYSQPQQPI was tested. Which Kd [11, 31] did it give?
Answer: ≥ 64 µM

Question: What about the Kd [12, 31] of the same sequence?
Answer: ≥ 63.7 µM

Question: And the Kd [13, 31]?
Answer: 11.4 µM

Question: And the Kd [14, 31]?
Answer: ≥ 63.7 µM

Question: And the Kd [15, 31]?
Answer: ≥ 63.7 µM
